Measured values: patent US20180171313A1 (NOVOZYMES A S, published 2018)

Target: T1, chaperone fusion protein (Chap-MBP): 6x histidine tag, E. coli maltose binding protein, linker and mature G. … (Gallaecimonas pentaromativorans …)
T1 construct: also called LIF
Assay: lipase refolded with the chaperone fusion protein, examined as the complex by differential scanning calorimetry
Protocol: Sample- and reference-solutions (approx. 0.2 ml) were loaded into the calorimeter (reference: buffer without enzyme) from storage conditions at 10° C. and thermally pre-equilibrated for 20 minutes at 20° C. prior to DSC scan from 20° C. to 100° C. Denaturation temperatures were determined at an accuracy of approximately +/−1° C.
In complex with the chaperone fusion protein, the thermostability of the lipase was high with a Td value in the range of 79.9-94.1° C. In a non-parallel trial under similar experimental conditions the thermostability of Lipolase was measured to have a Td value of 77.0° C.

B1: Gallaecimonas pentaromativorans lipase (lipase of the invention), mature part (enzyme)
chain: SGYTQTKYPIVLVHGLFGFDSLAGVDYWYGIPQALSQDGATVYVVNVSAANSTEVRGEQLLVQIDNILALTGAKKVNLIGHSHGGPTARYAASISPGKVASVTSVGGVNWGSRFADALRGTIAPGSVSESVIGAAANAFSSIIEFLSGTPADPQDSVAALNALTTAGSLAFNASYPEGMPSQYCGQGQMQAANGVYYFSWSGASPLTNVLDVTDAALGLTSLVFGESNDGLVSSCSSHLGKVIRDDYAMNHLDEVNQTFGLVSLFETNPKTLYRNQANRLKNLGL
notes: The forward primer adds an ATG start codon through its NdeI site; also called G. pentaromativorans lipase
binding result: binds
